Measurements: patent US8029979B2, “Method for determining the substrate specificity of an enzyme” (JPT Peptide Technologies GmbH, priority 2001, dated 2011)
BA1 = not defined here

Experiments:
[1] = target: T1, protein kinase A (Bos taurus, UniProt P00517); experiment: Incubation of modified glass surface with different concentrations of protein kinase A (FIG. 4, Example 25); format: biochemical; details: protein kinase A 1 U/mL or 10 U/mL, 30 min at 25° C.
T1 construct: purchased Sigma P26452 as printed
Method: (§1) FIG. 3. The peptide Leu-Arg-Arg-Ala-Ser-Leu-Gly-NH2, modified at the N-terminus with the dipeptide cysteinyl-β-alanine, was coupled to maleinimido-functionalised surfaces by a Michael addition (maleinimido-functionalised glass surface, Sigma, Silane-Prep™, S4651; as well as maleinimidobutyryl-β-alanine-functionalised, modified polypropylene membranes). The modified glass surfaces were first pre-incubated for 10 minutes using 20 mL of 100 μM ATP solution in 50 mM of sodium phosphate buffer pH 7.5. […] (Example 31). The phosphorylation of the corresponding peptides was detected using a FUJIFILM PhosphorImager. The signal intensity of the respective spot is given below the figures. […] FIG. 4. […] After incubation for 30 min at 25° C. the phosphorylation of the corresponding peptides was detected using a FUJIFILM PhosphorImager. […] After incubation for 30 min at 25° C. the phosphorylation of the corresponding peptides was detected using a FUJIFILM PhosphorImager. […]
After drying the glass surface the quantity of radioactive phosphate incorporated in the glass-surface-bound peptides was determined using a PhosphorImager system (FLA-3000, FUJIFILM) (see FIG. 4).

[2] = target: T1, protein kinase A; experiment: Incubation of modified glass surface with protein kinase A under cover glass (FIG. 5, Example 26); format: biochemical; details: protein kinase A 10 U/mL, 30 min at 25° C.
Method: as §1, with “4. The control peptide Leu-Arg-Arg-Ala-Ala-Leu-Gly-NH2, the peptide […] and the synthesis raw product […], each modified at the N-terminus with the dipeptide cysteinyl-β-alanine, were coupled to a maleinimido-functionalised glass surface by a Michael addition (Example 1).” for “4.”

For “Cys-BA1-Leu-Arg-Arg-Ala-Ser-Leu-Gly-NH2 ({Cys-BA1}-LRRASLG-NH2; reading uncertain; also: printed as Cys-BA1-Leu-Arg-Arg-Ala-Ser-Leu-Gly-NH2) [compound 85]”, the “signal intensity for the purified amino acid sequence higher than that for the corresponding control amino acid sequence” value [1] was “approximately 300 times”, the “signal intensity for the purified amino acid sequence higher than that for the synthesis product” value [1] was 500% and the “signal intensity for the substrate amino acid sequence higher than that for the control product” value [2] was 800%.
